The values below come from US20250026850A1 (TRISHULA THERAPEUTICS, published 2025).

T1: human CD39 on cells (human, UniProt P49961 1-510)
T1 construct: One molecule for all cells that carry human CD39; the cell is named under assay; also called hCD39; cellular CD39
T1 sequence: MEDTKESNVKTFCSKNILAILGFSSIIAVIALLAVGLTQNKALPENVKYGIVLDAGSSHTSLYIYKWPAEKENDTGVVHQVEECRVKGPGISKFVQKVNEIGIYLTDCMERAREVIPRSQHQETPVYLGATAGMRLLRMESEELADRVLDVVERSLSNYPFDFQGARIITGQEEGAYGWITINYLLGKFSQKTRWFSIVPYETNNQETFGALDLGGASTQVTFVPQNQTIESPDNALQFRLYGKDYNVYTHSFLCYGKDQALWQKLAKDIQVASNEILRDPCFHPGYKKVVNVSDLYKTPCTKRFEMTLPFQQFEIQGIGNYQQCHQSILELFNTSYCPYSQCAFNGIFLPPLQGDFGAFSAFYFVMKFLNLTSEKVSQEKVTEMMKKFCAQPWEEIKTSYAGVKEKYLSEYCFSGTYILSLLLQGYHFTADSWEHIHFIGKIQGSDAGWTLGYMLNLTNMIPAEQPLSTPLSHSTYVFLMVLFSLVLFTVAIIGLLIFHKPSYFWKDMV

T2: cynomolgus macaque (Macaca fascicularis) CD39 on cells (cynomolgus macaque (Macaca fascicularis), UniProt P49961 7-510 (human entry))
T2 construct: CHO cells engineered to express cyno CD39, or primary cyno B cells and monocytes; also called cyno CD39; cCD39
T2 chain: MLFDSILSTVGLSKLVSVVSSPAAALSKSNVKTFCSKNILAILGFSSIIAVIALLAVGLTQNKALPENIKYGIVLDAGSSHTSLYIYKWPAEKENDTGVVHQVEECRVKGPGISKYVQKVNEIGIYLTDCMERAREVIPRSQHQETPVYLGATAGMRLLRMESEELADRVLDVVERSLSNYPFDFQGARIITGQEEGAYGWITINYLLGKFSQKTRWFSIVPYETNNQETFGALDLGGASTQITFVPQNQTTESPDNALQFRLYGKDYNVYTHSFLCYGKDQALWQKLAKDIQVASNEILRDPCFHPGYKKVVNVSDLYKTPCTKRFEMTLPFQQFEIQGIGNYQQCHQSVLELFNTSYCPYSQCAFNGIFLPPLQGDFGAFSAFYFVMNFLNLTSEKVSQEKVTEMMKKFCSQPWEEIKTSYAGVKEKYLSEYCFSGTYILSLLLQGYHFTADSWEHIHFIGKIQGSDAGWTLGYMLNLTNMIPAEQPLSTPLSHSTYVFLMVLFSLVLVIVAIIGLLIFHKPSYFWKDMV

T3: rhCD39-ECD-His (R&D Systems) (human, UniProt P49961 38-478)
T3 construct: Bought protein; that entry runs on through the C-terminal transmembrane and cytoplasmic residues; also called recombinant human CD39 extracellular domain; soluble recombinant human CD39 (ENTDP1) ECD; not shown: His tag
T3 sequence: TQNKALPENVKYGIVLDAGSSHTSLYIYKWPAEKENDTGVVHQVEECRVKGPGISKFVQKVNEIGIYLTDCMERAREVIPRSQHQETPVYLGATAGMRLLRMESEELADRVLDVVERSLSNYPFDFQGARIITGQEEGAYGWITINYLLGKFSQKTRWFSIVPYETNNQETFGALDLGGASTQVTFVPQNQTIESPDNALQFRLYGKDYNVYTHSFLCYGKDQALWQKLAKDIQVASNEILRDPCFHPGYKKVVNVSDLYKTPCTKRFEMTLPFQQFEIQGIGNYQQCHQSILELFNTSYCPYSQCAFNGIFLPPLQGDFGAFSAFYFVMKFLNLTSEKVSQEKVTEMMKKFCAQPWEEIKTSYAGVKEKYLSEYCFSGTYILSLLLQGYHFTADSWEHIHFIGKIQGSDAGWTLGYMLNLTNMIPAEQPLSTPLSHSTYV

B1: 27577 (antibody, V domains shown)
VH: QVQLVQSGAEVKKPGSSVKVSCKASGGAFSSYAIGWVRQAPGQGLEWMGGIIPTFGTANYAQKFQGRVTITADESTSTAYMELSSLRSEDTAVYYCARDGGGYQHHYFDLWGRGTLVTVSS
VL: EIVMTQSPATLSVSPGERATLSCRASQSVGSNLAWYQQKPGQAPRLLIYGASTRATGIPARFSGSGSGTEFTLTISSLQSEDFAVYYCQQLTKWPLTFGGGTKVEIKR
B2: 27550 (antibody, V domains shown)
VH: EVQLVESGGGLVKPGGSLRLSCAASGFTFSSYSMNWVRQAPGKGLEWVSSISSSSSYIYYADSVKGRFTISRDNAKNSLYLQMNSLRAEDTAVYYCARERRGSLALGMDVWGQGTLVTVSS
VL: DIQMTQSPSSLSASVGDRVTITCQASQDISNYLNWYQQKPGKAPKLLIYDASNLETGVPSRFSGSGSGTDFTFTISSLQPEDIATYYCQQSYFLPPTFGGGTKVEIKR
B3: 27536 (antibody, V domains shown)
VH: QVQLVQSGAEVKKPGSSVKVSCKASGGTFSNYAISWVRQAPGQGLEWMGGIIPIFGTANYAQKFQGRVTITADESTSTAYMELSSLRSEDTAVYYCARDTLYSSGAYYGYNVWGQGTMVTVSS
VL: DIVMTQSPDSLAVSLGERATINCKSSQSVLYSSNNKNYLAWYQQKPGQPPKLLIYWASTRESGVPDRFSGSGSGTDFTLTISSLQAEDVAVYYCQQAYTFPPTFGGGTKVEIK
B4: 29871 (antibody, V domains shown)
VH: QVQLVQSGAEVKKPGASVKVSCKASGYTFQSYYMHWVRQAPGQGLEWMGKINPSGGSTWYAQKFQGRVTMTRDTSTSTVYMELSSLRSEDTAVYYCARGKREGGTEYLRHWGQGTLVTVSS
VL: EIVLTQSPGTLSLSPGERATLSCRASQSVSSSYLAWYQQKPGQAPRLLIYGASSRATGIPDRFSGSGSGTDFTLTISRLEPEDFAVYYCQQYHSYITFGGGTKVEIK
B5: 31418 (antibody, V domains shown)
VH: B4 VH with Q30K, Y33E, K50R
VL: EIVLTQSPGTLSLSPGERATLSCRASQSVSSSYLAWYQQKPGQAPRLLIYGASSRATGIPDRFSGSGSGTDFTLTISRLEPEDFAVYYCQQYYFYITFGGGTKVEIKR
B6: 31430 (antibody, V domains shown)
VH: B4 VH with Q30K, Y33E, K50R
VL: B5 VL with R24E, S31Y, T57N, Y93H, F94S, Y95A, I96L
B7: 31421 (antibody, V domains shown)
VH: B4 VH with Q30F, H35Y, K50V, S54L, S57G, W59S
VL: B4 VL with R24K, Q27E, G51Y, S94R, Y95R
B8: 31891 (antibody, V domains shown)
VH: B4 VH with T28I, Q30K, Y33E, K50R, G55V, H110V
VL: B5 VL with G51Y, T57Y, Y93H, F94N, Y95A
B9: 31415 (antibody, V domains shown)
VH: B4 VH with Q30T, Y33Q, K50R, H110S
VL: B5 VL with Y93H, F94S
B10: 27568 (antibody, V domains shown)
VH: QVQLVQSGAEVKKPGSSVKVPCKASGGTFSSYAISWVRQAPEQGLEWMGSIIPIFGTANYAQKFQGRVTITADESTSTAYMELSSLRSEDTAVYYCAGESGGYRDHKLDVWGQGTVVTVSS
VL: EIVLTQSPATLSLSPGERATLSCRASQSVSSYLAWYQQKPGQAPRLLIYDASNRATGIPARFSGSGSGTDFTLTISSLEPEDFAVYYCQQSVFWPITFGGGTKVEIKR
B11: 27571 (antibody, V domains shown)
VH: B10 VH with V20A, P21S, E42G, Q65R, A79T, G98R, K107R, V116M
VL: EIVMTQSPATLSVSPGERATLSCRASQSVGSNLAWYQQKPGQAPRLLIYGASTRATGIPARFSGSGSGTEFTLTISSLQSEDFAVYYCQQYLIWPLTFGGGTKVEIK
B12: 27587 (antibody, V domains shown)
VH: B10 VH with P21S, E42G, G98R, V116M
VL: B10 VL with N53K, S91D, F93L, I96L
B13: 31896 (antibody, V domains shown)
VH: QVQLVQSGAEVKKPGSSVKVSCKASGGTFSKLAISWVRQAPGQGLEWMGGIGFGTANYAQKFQGRVTITADESASTAYMELSSLRSEDTAVYYCARGGAKYASTHGMDVWGQGTTVTVSS
VL: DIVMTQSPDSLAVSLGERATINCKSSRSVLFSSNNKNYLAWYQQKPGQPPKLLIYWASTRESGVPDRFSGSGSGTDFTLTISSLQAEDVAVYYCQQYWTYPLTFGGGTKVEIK
B14: 31915 (antibody, V domains shown)
VH: B13 VH with K31S, A33P, A74T, T104K, H105W
VL: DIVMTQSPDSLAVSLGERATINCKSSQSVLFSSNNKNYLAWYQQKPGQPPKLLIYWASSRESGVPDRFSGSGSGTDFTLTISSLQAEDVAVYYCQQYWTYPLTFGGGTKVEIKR

Substitutions are numbered along the chain they refer to.

The target in one assay is T1, human CD39 on cells. Kind of assay: flow cytometry, 100 nM IgG, hCD39-CHO cells; MFI ratio to parental CHO. Here is the method: (§1) 100 nanomolar IgGs (each antibody is indicated as a unique clone number in the FIG.) were incubated at […] 30 minutes on ice in phosphate buffered saline (PBS) with parental CHO cells or CHO cells engineered to express either human or cynomolgus macaque (Macaca fascicularis) CD39 (CHO CD39 cells). Cells were then washed with ice cold PBS and incubated with a fluorescently labeled goat-anti-human IgG for 20 minutes on ice. Cells were washed and resuspended in ice cold PBS prior to analysis by flow cytrometry.
(A flow cytometer gives signals particle by particle.)
As to B1, the “Cell Binding (FOB)” value was determined as 390 FOB.

In the case of B2, the “Cell Binding (FOB)” value stood at 2030 FOB.

Turning to B3, the “Cell Binding (FOB)” value stood at 89 FOB.

Consider B4, for which the “Cell Binding (FOB)” value came to 451 FOB.

As to B5, the “Cell Binding (FOB)” value amounted to 1080 FOB.

Turning to B6, the “Cell Binding (FOB)” value was 1220 FOB.

For B7, the “Cell Binding (FOB)” value is 1080 FOB.

With B8, the “Cell Binding (FOB)” value was 1030 FOB.

B9: the “Cell Binding (FOB)” value came to 1170 FOB.

Regarding B10, the “Cell Binding (FOB)” value was determined as 267 FOB.

B11: the “Cell Binding (FOB)” value came to 1400 FOB.

Turning to B12, the “Cell Binding (FOB)” value was 1450 FOB.

As to B13, the “Cell Binding (FOB)” value is 1040 FOB.

On to B14, for which the “Cell Binding (FOB)” value stood at 1090 FOB.

The next assay has as its target T2, cynomolgus macaque (Macaca …). Kind of assay: flow cytometry, 100 nM IgG, cCD39-CHO cells; MFI ratio to parental CHO. On the procedure:
as §1
Turning to B1, the “Cell Binding (FOB)” value was 339 FOB.

With B2, the “Cell Binding (FOB)” value is 2870 FOB.

B3: the “Cell Binding (FOB)” value is 113 FOB.

Consider B4, for which the “Cell Binding (FOB)” value was 3350 FOB.

Consider B5, for which the “Cell Binding (FOB)” value is 3180 FOB.

Take B6: the “Cell Binding (FOB)” value worked out at 3570 FOB.

Take B7: the “Cell Binding (FOB)” value stood at 3050 FOB.

B8: the “Cell Binding (FOB)” value came to 4650 FOB.

Consider B9, for which the “Cell Binding (FOB)” value came out at 3360 FOB.

B10: the “Cell Binding (FOB)” value is 260 FOB.

In the case of B11, the “Cell Binding (FOB)” value is 1610 FOB.

As to B12, the “Cell Binding (FOB)” value was 1400 FOB.

On to B13, for which the “Cell Binding (FOB)” value came out at 4540 FOB.

For B14, the “Cell Binding (FOB)” value worked out at 4580 FOB.

A further assay has as its target T3, rhCD39-ECD-His (R&D Systems). The experiment in a line: BLI (Octet), IgG on anti-human Fc sensor, rhCD39-ECD-His 10-300 nM, 1:1 fit. Here is the method: The kinetic data was globally fit with a simple 1:1 Langmuir binding model to yield on-rate (kon) and off-rate (koff) values. The equilibrium dissociation constants (KD) were calculated from the kon and koff values.
Binding kinetics were measured using the Octet Red96 system (ForteBio) at 25° C. in running buffer (1× Pall ForteBio Kinetics Buffer diluted into PBS or Tris pH 7.4). […] After a short baseline step in running buffer, the sensors were exposed to varying concentrations (10-300 nM) of rhCD39-ECD-His (R&D Systems) for the association step. Dissociation of the complex was monitored upon exposure of the sensors to running buffer once again. Data was processed using ForteBio Octet software with baseline subtraction, global fit and 1:1 binding model to obtain association and dissociation rates. KD was calculated from the ratio of kd to kₐ.
For orientation: Kd means the concentration at which binding is half-saturated. A higher Kd goes with lower affinity. A word on the koff: it is a measure of how fast the partners let go of each other. A high value points to fast dissociation. As usually defined, the kon is a measure of how fast the partners come together. B1 came in with a Kd of 409 nM, a koff of 0.365 s⁻¹ and a kon of 893000 M⁻¹ s⁻¹.

B2 displayed an equilibrium dissociation constant (Kd) of 143 nM, an off-rate constant (koff) of 0.0633 s⁻¹ and a kon of 444000 M⁻¹ s⁻¹.

Molecule B3 yielded a dissociation constant (Kd) of 114 nM, a dissociation rate constant (koff) of 0.00751 s⁻¹ and a kon of 65900 M⁻¹ s⁻¹.

Consider B4, for which binding was characterised by a dissociation constant (Kd) of 244 nM, the koff came out at 0.0666 s⁻¹ and the on-rate (kon) turned out to be 273000 M⁻¹ s⁻¹.

B7 had a Kd of 18.8 nM, a dissociation rate constant (koff) of 0.00526 s⁻¹ and an association rate constant (kon) of 281000 M⁻¹ s⁻¹.

B10 registered an equilibrium dissociation constant (Kd) of 173 nM, a koff of 0.047 s⁻¹ and an on-rate constant (kon) of 272000 M⁻¹ s⁻¹.

B11 had an equilibrium dissociation constant (Kd) of 16.4 nM, a koff of 0.0105 s⁻¹ and a kon of 639000 M⁻¹ s⁻¹.

In turn, B12 displayed a Kd of 33.7 nM, a koff of 0.00711 s⁻¹ and an on-rate constant (kon) of 211000 M⁻¹ s⁻¹.

For the molecule B13, the dissociation constant Kd was determined as 9.05 nM, the koff was determined as 0.00815 s⁻¹ and the on-rate constant (kon) was 901000 M⁻¹ s⁻¹.

B14: binding was characterised by a dissociation constant (Kd) of 0.811 nM, the koff was 0.000286 s⁻¹ and the kon stood at 353000 M⁻¹ s⁻¹.
